# B1: IIBS (dsDNA)
# DNA 1: ATGAAATCTAACAATGCGCTCATCGTCATCCTCGGC
# DNA 2: GCCGAGGATGACGATGAGCGCATTGTTAGATTTCAT
# What was measured:
# Topo IIN = target: T1, Topo IIN (Giardia lamblia, UniProt E2RU90 1-488); assay: EMSA; EMSA: 0.02 pmol 5'-labeled probe, 5 ng protein, 20 ul, 0.5 ug poly(dI-dC), 15 min, room temperature, 6% acrylamide gel; buffer, salt and pH only by citation; conditions: protein: recombinant; tags: C-terminal V5-His; label: 5'-32P
# T1 sequence: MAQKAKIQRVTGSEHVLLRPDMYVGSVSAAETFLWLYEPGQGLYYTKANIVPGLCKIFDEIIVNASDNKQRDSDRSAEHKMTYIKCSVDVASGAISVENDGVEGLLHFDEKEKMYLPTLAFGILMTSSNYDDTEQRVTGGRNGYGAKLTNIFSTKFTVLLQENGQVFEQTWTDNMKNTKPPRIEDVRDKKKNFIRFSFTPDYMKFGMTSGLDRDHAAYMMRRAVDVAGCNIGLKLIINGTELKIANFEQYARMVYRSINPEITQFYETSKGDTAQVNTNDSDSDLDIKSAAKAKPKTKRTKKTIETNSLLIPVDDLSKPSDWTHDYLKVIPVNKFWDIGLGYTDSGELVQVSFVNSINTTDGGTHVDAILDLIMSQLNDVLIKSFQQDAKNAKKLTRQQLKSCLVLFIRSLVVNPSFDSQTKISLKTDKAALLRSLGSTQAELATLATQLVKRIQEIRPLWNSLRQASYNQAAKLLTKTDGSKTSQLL
# Topo IIC = target: T2, Topo IIC (Giardia lamblia, UniProt E2RU90 489-1491); assay: as above; conditions: protein: recombinant; tags: C-terminal V5-His; chain copies: 2; label: 5'-32P
# T2 sequence: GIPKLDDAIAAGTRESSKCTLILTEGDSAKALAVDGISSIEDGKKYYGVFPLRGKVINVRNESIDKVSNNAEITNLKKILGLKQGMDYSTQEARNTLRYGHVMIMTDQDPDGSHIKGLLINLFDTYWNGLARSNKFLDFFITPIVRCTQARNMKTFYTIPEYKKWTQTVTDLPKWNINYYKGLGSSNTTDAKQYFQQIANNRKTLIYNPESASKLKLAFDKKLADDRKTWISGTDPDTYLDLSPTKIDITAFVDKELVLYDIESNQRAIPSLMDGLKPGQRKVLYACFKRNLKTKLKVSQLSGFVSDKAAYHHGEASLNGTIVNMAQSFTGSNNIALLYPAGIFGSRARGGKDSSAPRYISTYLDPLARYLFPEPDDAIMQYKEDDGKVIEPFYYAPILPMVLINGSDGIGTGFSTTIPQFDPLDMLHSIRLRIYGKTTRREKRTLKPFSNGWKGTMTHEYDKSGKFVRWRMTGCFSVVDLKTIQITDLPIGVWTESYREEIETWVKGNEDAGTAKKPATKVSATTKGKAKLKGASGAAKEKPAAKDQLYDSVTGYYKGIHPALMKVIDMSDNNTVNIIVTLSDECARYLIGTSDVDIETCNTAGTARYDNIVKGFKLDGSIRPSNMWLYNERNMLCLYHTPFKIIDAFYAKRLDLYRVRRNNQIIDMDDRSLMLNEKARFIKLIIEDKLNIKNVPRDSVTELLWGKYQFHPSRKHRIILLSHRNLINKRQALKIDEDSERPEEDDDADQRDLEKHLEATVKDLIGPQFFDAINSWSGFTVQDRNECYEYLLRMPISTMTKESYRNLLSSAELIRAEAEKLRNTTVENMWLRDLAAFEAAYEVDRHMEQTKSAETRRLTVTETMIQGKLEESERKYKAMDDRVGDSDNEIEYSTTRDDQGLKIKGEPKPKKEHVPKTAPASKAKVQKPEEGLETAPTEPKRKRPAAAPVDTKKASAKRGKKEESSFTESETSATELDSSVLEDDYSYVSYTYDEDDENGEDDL
binder,measurement,setting,value
B1,binding result,Topo IIN,no binding
same,binding result,Topo IIC,binds

# From paper PMC3656124, “DNA Topoisomerase II Is Involved in Regulation of Cyst Wall Protein Genes and Differentiation in Giardia lamblia” (PLoS Neglected Tropical Diseases, 2013)
